Assay results reported in patent publication US20220332804A1 (CSL INNOVATION, published 2022).
Numbering of substitutions follows the chain as printed.

Columns and labels:
Test in all cases: SPR, mAb captured, C2 mutant analyte;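 note: Anti-C2 mAbs captured on goat anti-human IgG Biacore CM5 chips, alanine or serine C2 surface mutants flowed over at 37 °C, double-referenced sensorgrams fitted to a 1:1 binding model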
human C2 K443A = molecular target: T1, human C2 K443A (human, UniProt P06681 21-752)
T1 sequence: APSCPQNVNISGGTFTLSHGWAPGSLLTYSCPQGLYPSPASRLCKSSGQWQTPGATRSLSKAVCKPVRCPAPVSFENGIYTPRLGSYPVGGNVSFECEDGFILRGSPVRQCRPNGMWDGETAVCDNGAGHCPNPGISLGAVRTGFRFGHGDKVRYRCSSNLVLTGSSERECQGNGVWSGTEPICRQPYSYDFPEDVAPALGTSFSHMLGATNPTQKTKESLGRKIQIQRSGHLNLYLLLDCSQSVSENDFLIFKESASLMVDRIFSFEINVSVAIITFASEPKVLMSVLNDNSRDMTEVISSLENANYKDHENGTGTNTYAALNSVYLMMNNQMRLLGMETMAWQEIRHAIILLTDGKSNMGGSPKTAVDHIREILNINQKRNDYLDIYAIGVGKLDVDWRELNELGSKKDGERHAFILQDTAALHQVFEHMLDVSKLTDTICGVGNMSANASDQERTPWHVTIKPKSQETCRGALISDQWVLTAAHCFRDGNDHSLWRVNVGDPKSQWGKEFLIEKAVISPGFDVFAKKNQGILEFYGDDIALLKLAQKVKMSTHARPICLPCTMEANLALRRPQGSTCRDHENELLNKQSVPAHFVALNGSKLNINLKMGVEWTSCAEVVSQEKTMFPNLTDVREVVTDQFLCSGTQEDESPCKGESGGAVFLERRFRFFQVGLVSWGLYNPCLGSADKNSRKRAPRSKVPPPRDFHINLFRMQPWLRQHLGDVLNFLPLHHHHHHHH

human C2 E267A = molecular target: T2, human C2 E267A (human, UniProt P06681 21-752)
T2 sequence: T1 sequence with E247A, A423K

human C2 H451A = molecular target: T3, human C2 H451A (human, UniProt P06681 21-752)
T3 sequence: T1 sequence with A423K, H431A

human C2 F437A = molecular target: T4, human C2 F437A (human, UniProt P06681 21-752)
T4 sequence: T1 sequence with F417A, A423K

binding result (human C2 K443A): no binding
Kd (human C2 E267A): 26.2 nM
Kd (human C2 H451A): 138 nM
Kd (human C2 F437A): 381 nM
B1: RF16-214 (antibody, V domains shown)
VH: EVQLLESGGGLVQPGGSLRLSCAASGFTFSWYQMMWVRQAPGKGLEWVSRIYPSGGGTAYADSVKGRFTISRDNSKNTLYLQMNSLRAEDTAVYYCARDAGYGDNWGQGTLVTVSS
VL: QSALTQPPSVSVSPGQTASITCSGDKLGEKYASWYQQKAGQSPVMVIYQDRKRPSGIPERFSGSNSGNTATLTISGTQAMDEADYYCQAWDTRAVVFGGGTKLTVLG
